We go through 18 molecules from patent publication US20240294593A1 (Genentech, published 2024).

Where two headings read alike, the source gives them in different places.

For assay [1], the target named is T1, human PD-1-His (human, UniProt Q15116 25-167, limits assumed).
T1 construct: Antigen of the Octet assays; not shown: His tag
Kind of assay: Octet. (BLI is a label-free optical method that tracks binding on a fibre tip over time.)

The target of assay [2] is T1, human PD-1-His. Kind of assay: Octet. The source holds these as a separate data set.

T1 sequence (Q15116 25-167 limits assumed): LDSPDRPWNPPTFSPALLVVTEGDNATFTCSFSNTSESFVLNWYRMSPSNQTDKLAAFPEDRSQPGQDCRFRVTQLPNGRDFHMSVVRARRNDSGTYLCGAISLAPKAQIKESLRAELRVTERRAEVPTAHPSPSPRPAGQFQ

B1: H1.114_L1 (antibody, V domains shown)
VH: EVQLVESGGGLVQPGGSLRLSCAASGFTFSSFGMHWVRQAPGKGLEWVSYISSGSSIIYYADSVKGRFTISRDNAKNSLYLQMNSLRAEDTAVYYCARYGRLVWSPDYWGQGTLVTVSS
VL: DIVMTQSPDSLAVSLGERATINCKSSQSLLNSGNQKNYLTWYQQKPGQPPKLLIYWASTRESGVPDRFTGSGSGTDFTLTISSLQAEDVAVYYCQNDYSYPFTFGSGTKLEIKR
notes: also called VH-G103Y; Kabat 95
By Kd is commonly meant a measure of binding affinity in units of concentration. The low end stands for tighter binding, the high end for weaker binding. For orientation: koff means a measure of how fast the partners let go of each other. Higher therefore signals fast dissociation. By kon is commonly meant the second-order rate constant of association. A low value points to slower complex formation. For B1, in the assay with human PD-1-His [1], binding was put at a Kd of 592 nM, the dissociation rate constant (koff) was determined as 0.0875 s⁻¹ and the kon was 148000 M⁻¹ s⁻¹.

B2: H1.129_L1 (antibody, V domains shown)
VH: EVQLVESGGGLVQPGGSLRLSCAASGFTFSSFGMHWVRQAPGKGLEWVSYISSGSSIIYYADSVKGRFTISRDNAKNSLYLQMNSLRAEDTAVYYCARGGGLVWSPDYWGQGTLVTVSS
VL: DIVMTQSPDSLAVSLGERATINCKSSQSLLNSGNQKNYLTWYQQKPGQPPKLLIYWASTRESGVPDRFTGSGSGTDFTLTISSLQAEDVAVYYCQNDYSYPFTFGSGTKLEIKR
notes: also called VH-R109G; Kabat 97
As to B2, in the assay with human PD-1-His [1], binding was put at a Kd of 43.2 nM, the koff came out at 0.00719 s⁻¹ and the association rate constant (kon) was 167000 M⁻¹ s⁻¹.

B3: mAb C H1.19_L1 (antibody, name in Kabat numbering, V domains shown)
VH: EVQLVESGGGLVQPGGSLRLSCAASGFTFSSLGMHWVRQAPGKGLEWVSYISSGSSIIYYADSVKGRFTISRDNAKNSLYLQMNSLRAEDTAVYYCARGGRLVWSPDYWGQGTLVTVSS
VL: DIVMTQSPDSLAVSLGERATINCKSSQSLLNSGNQKNYLTWYQQKPGQPPKLLIYWASTRESGVPDRFTGSGSGTDFTLTISSLQAEDVAVYYCQNDYSYPFTFGSGTKLEIK
Turning to B3, in the assay with human PD-1-His [2], the affinity, expressed as Kd, was 16.7 nM; the koff turned out to be 0.00217 s⁻¹; the association rate constant (kon) came to 130000 M⁻¹ s⁻¹.

B4: H1.116_L1 (antibody, V domains shown)
VH: EVQLVESGGGLVQPGGSLRLSCAASGFTFSSFGMHWVRQAPGKGLEWVSYISSGSSIIYYADSVKGRFTISRDNAKNSLYLQMNSLRAEDTAVYYCARGSRLVWSPDYWGQGTLVTVSS
VL: DIVMTQSPDSLAVSLGERATINCKSSQSLLNSGNQKNYLTWYQQKPGQPPKLLIYWASTRESGVPDRFTGSGSGTDFTLTISSLQAEDVAVYYCQNDYSYPFTFGSGTKLEIKR
notes: also called VH-G108S; Kabat 96
In the assay with human PD-1-His [1], B4 returned a dissociation constant Kd of 183 nM, a koff of 0.0347 s⁻¹ and a kon of 190000 M⁻¹ s⁻¹.

B5: H1.134_L1 (antibody, V domains shown)
VH: EVQLVESGGGLVQPGGSLRLSCAASGFTFSSFGMHWVRQAPGKGLEWVSYISSGSSIIYYADSVKGRFTISRDNAKNSLYLQMNSLRAEDTAVYYCARGGRFVWSPDYWGQGTLVTVSS
VL: DIVMTQSPDSLAVSLGERATINCKSSQSLLNSGNQKNYLTWYQQKPGQPPKLLIYWASTRESGVPDRFTGSGSGTDFTLTISSLQAEDVAVYYCQNDYSYPFTFGSGTKLEIKR
notes: also called VH-L110F; Kabat 98
Turning to B5, in the assay with human PD-1-His [1], binding was characterised by a dissociation constant (Kd) of 60.8 nM, the off-rate (koff) worked out at 0.0088 s⁻¹ and the on-rate (kon) amounted to 145000 M⁻¹ s⁻¹.

B6: H1.118_L1 (antibody, V domains shown)
VH: EVQLVESGGGLVQPGGSLRLSCAASGFTFSSFGMHWVRQAPGKGLEWVSYISSGSSIIYYADSVKGRFTISRDNAKNSLYLQMNSLRAEDTAVYYCARGQRLVWSPDYWGQGTLVTVSS
VL: DIVMTQSPDSLAVSLGERATINCKSSQSLLNSGNQKNYLTWYQQKPGQPPKLLIYWASTRESGVPDRFTGSGSGTDFTLTISSLQAEDVAVYYCQNDYSYPFTFGSGTKLEIKR
notes: also called VH-G108Q; Kabat 96
In the assay with human PD-1-His [1], B6 gave a Kd of 192 nM, a koff of 0.0316 s⁻¹ and a kon of 164000 M⁻¹ s⁻¹.

B7: H1.125_L1 (antibody, human IgG1, kappa, V domains shown)
VH: EVQLVESGGGLVQPGGSLRLSCAASGFTFSSFGMHWVRQAPGKGLEWVSYISSGSSIIYYADSVKGRFTISRDNAKNSLYLQMNSLRAEDTAVYYCARGGELVWSPDYWGQGTLVTVSS
VL: DIVMTQSPDSLAVSLGERATINCKSSQSLLNSGNQKNYLTWYQQKPGQPPKLLIYWASTRESGVPDRFTGSGSGTDFTLTISSLQAEDVAVYYCQNDYSYPFTFGSGTKLEIKR
notes: also called VH-R109E; Kabat 97; copies: 2 + 2
In the assay with human PD-1-His [1], B7 gave a Kd of 18.7 nM, a dissociation rate constant (koff) of 0.0052 s⁻¹ and a kon of 278000 M⁻¹ s⁻¹.

B8: H1.124_L1 (antibody, V domains shown)
VH: EVQLVESGGGLVQPGGSLRLSCAASGFTFSSFGMHWVRQAPGKGLEWVSYISSGSSIIYYADSVKGRFTISRDNAKNSLYLQMNSLRAEDTAVYYCARGGKLVWSPDYWGQGTLVTVSS
VL: DIVMTQSPDSLAVSLGERATINCKSSQSLLNSGNQKNYLTWYQQKPGQPPKLLIYWASTRESGVPDRFTGSGSGTDFTLTISSLQAEDVAVYYCQNDYSYPFTFGSGTKLEIKR
notes: also called VH-R109K; Kabat 97
In the assay with human PD-1-His [1], B8 came in with a Kd of 48.8 nM, a koff of 0.00674 s⁻¹ and an on-rate (kon) of 138000 M⁻¹ s⁻¹.

B9: H1.130_L1 (antibody, human IgG1, kappa, V domains shown)
VH: EVQLVESGGGLVQPGGSLRLSCAASGFTFSSFGMHWVRQAPGKGLEWVSYISSGSSIIYYADSVKGRFTISRDNAKNSLYLQMNSLRAEDTAVYYCARGGYLVWSPDYWGQGTLVTVSS
VL: DIVMTQSPDSLAVSLGERATINCKSSQSLLNSGNQKNYLTWYQQKPGQPPKLLIYWASTRESGVPDRFTGSGSGTDFTLTISSLQAEDVAVYYCQNDYSYPFTFGSGTKLEIKR
notes: also called VH-R109Y; Kabat 97; copies: 2 + 2
In the assay with human PD-1-His [1], B9 returned a dissociation constant (Kd) of 22.1 nM, a dissociation rate constant (koff) of 0.00505 s⁻¹ and an on-rate (kon) of 228000 M⁻¹ s⁻¹.

B10: H1.115_L1 (antibody, V domains shown)
VH: EVQLVESGGGLVQPGGSLRLSCAASGFTFSSFGMHWVRQAPGKGLEWVSYISSGSSIIYYADSVKGRFTISRDNAKNSLYLQMNSLRAEDTAVYYCARGARLVWSPDYWGQGTLVTVSS
VL: DIVMTQSPDSLAVSLGERATINCKSSQSLLNSGNQKNYLTWYQQKPGQPPKLLIYWASTRESGVPDRFTGSGSGTDFTLTISSLQAEDVAVYYCQNDYSYPFTFGSGTKLEIKR
notes: also called VH-G108A; Kabat 96
As for B10, in the assay with human PD-1-His [1], the affinity, expressed as Kd, was 76.7 nM; the koff is 0.0116 s⁻¹; the kon is 151000 M⁻¹ s⁻¹.

B11: H1.123_L1 (antibody, V domains shown)
VH: EVQLVESGGGLVQPGGSLRLSCAASGFTFSSFGMHWVRQAPGKGLEWVSYISSGSSIIYYADSVKGRFTISRDNAKNSLYLQMNSLRAEDTAVYYCARGYRLVWSPDYWGQGTLVTVSS
VL: DIVMTQSPDSLAVSLGERATINCKSSQSLLNSGNQKNYLTWYQQKPGQPPKLLIYWASTRESGVPDRFTGSGSGTDFTLTISSLQAEDVAVYYCQNDYSYPFTFGSGTKLEIKR
notes: also called VH-G108Y; Kabat 96
With B11, in the assay with human PD-1-His [1], the dissociation constant (Kd) came out at 350 nM, the koff stood at 0.0538 s⁻¹ and the kon was determined as 154000 M⁻¹ s⁻¹.

B12: H1.126_L1 (antibody, V domains shown)
VH: EVQLVESGGGLVQPGGSLRLSCAASGFTFSSFGMHWVRQAPGKGLEWVSYISSGSSIIYYADSVKGRFTISRDNAKNSLYLQMNSLRAEDTAVYYCARGGDLVWSPDYWGQGTLVTVSS
VL: DIVMTQSPDSLAVSLGERATINCKSSQSLLNSGNQKNYLTWYQQKPGQPPKLLIYWASTRESGVPDRFTGSGSGTDFTLTISSLQAEDVAVYYCQNDYSYPFTFGSGTKLEIKR
notes: also called VH-R109D; Kabat 97
In the assay with human PD-1-His [1], B12 gave a Kd of 43.1 nM, a koff of 0.0109 s⁻¹ and a kon of 254000 M⁻¹ s⁻¹.

B13: H1.128_L1 (antibody, V domains shown)
VH: EVQLVESGGGLVQPGGSLRLSCAASGFTFSSFGMHWVRQAPGKGLEWVSYISSGSSIIYYADSVKGRFTISRDNAKNSLYLQMNSLRAEDTAVYYCARGGSLVWSPDYWGQGTLVTVSS
VL: DIVMTQSPDSLAVSLGERATINCKSSQSLLNSGNQKNYLTWYQQKPGQPPKLLIYWASTRESGVPDRFTGSGSGTDFTLTISSLQAEDVAVYYCQNDYSYPFTFGSGTKLEIKR
notes: also called VH-R109S; Kabat 97
In the assay with human PD-1-His [1], B13 yielded an equilibrium dissociation constant (Kd) of 32.8 nM, an off-rate (koff) of 0.00608 s⁻¹ and an on-rate constant (kon) of 186000 M⁻¹ s⁻¹.

B14: H1.117_L1 (antibody, V domains shown)
VH: EVQLVESGGGLVQPGGSLRLSCAASGFTFSSFGMHWVRQAPGKGLEWVSYISSGSSIIYYADSVKGRFTISRDNAKNSLYLQMNSLRAEDTAVYYCARGTRLVWSPDYWGQGTLVTVSS
VL: DIVMTQSPDSLAVSLGERATINCKSSQSLLNSGNQKNYLTWYQQKPGQPPKLLIYWASTRESGVPDRFTGSGSGTDFTLTISSLQAEDVAVYYCQNDYSYPFTFGSGTKLEIKR
notes: also called VH-G108T; Kabat 96
As to B14, in the assay with human PD-1-His [1], the Kd was determined as 121 nM, the koff amounted to 0.0105 s⁻¹ and the kon came out at 86900 M⁻¹ s⁻¹.

B15: H1.119_L1 (antibody, V domains shown)
VH: EVQLVESGGGLVQPGGSLRLSCAASGFTFSSFGMHWVRQAPGKGLEWVSYISSGSSIIYYADSVKGRFTISRDNAKNSLYLQMNSLRAEDTAVYYCARGHRLVWSPDYWGQGTLVTVSS
VL: DIVMTQSPDSLAVSLGERATINCKSSQSLLNSGNQKNYLTWYQQKPGQPPKLLIYWASTRESGVPDRFTGSGSGTDFTLTISSLQAEDVAVYYCQNDYSYPFTFGSGTKLEIKR
notes: also called VH-G108H; Kabat 96
Regarding B15, in the assay with human PD-1-His [1], binding was characterised by a dissociation constant (Kd) of 186 nM, the dissociation rate constant (koff) amounted to 0.0376 s⁻¹ and the association rate constant (kon) is 202000 M⁻¹ s⁻¹.

B16: H1.133_L1 (antibody, V domains shown)
VH: EVQLVESGGGLVQPGGSLRLSCAASGFTFSSFGMHWVRQAPGKGLEWVSYISSGSSIIYYADSVKGRFTISRDNAKNSLYLQMNSLRAEDTAVYYCARGGRIVWSPDYWGQGTLVTVSS
VL: DIVMTQSPDSLAVSLGERATINCKSSQSLLNSGNQKNYLTWYQQKPGQPPKLLIYWASTRESGVPDRFTGSGSGTDFTLTISSLQAEDVAVYYCQNDYSYPFTFGSGTKLEIKR
notes: also called VH-L110I; Kabat 98
As for B16, in the assay with human PD-1-His [1], the Kd was determined as 49.5 nM, the off-rate (koff) came out at 0.00753 s⁻¹ and the kon came to 152000 M⁻¹ s⁻¹.

B17: H1.127_L1 (antibody, V domains shown)
VH: EVQLVESGGGLVQPGGSLRLSCAASGFTFSSFGMHWVRQAPGKGLEWVSYISSGSSIIYYADSVKGRFTISRDNAKNSLYLQMNSLRAEDTAVYYCARGGHLVWSPDYWGQGTLVTVSS
VL: DIVMTQSPDSLAVSLGERATINCKSSQSLLNSGNQKNYLTWYQQKPGQPPKLLIYWASTRESGVPDRFTGSGSGTDFTLTISSLQAEDVAVYYCQNDYSYPFTFGSGTKLEIKR
notes: also called VH-R109H; Kabat 97
In the assay with human PD-1-His [1], B17 registered a Kd of 30.8 nM, a koff of 0.00578 s⁻¹ and an on-rate constant (kon) of 188000 M⁻¹ s⁻¹.

B18: H1.131_L1 (antibody, V domains shown)
VH: EVQLVESGGGLVQPGGSLRLSCAASGFTFSSFGMHWVRQAPGKGLEWVSYISSGSSIIYYADSVKGRFTISRDNAKNSLYLQMNSLRAEDTAVYYCARGGILVWSPDYWGQGTLVTVSS
VL: DIVMTQSPDSLAVSLGERATINCKSSQSLLNSGNQKNYLTWYQQKPGQPPKLLIYWASTRESGVPDRFTGSGSGTDFTLTISSLQAEDVAVYYCQNDYSYPFTFGSGTKLEIKR
notes: also called VH-R109I; Kabat 97
In the assay with human PD-1-His [1], B18 showed a Kd of 43.5 nM, a koff of 0.00878 s⁻¹ and an on-rate (kon) of 202000 M⁻¹ s⁻¹.
